Test results from publication PMC9984488.

Tests used:
14-3-3τ = 14-3-3τ (UniProt P27348); experiment: GST pull-down from co-transfected cells; details: reference: GST-HIP-55 wild type; sites S269,T291
MAP4K1 = MAP4K1 (UniProt Q92918); experiment: GST pull-down from transfected cells; details: reference: HIP-55 wild type; sites S269,T291

## HIP-55 (from UniProt Q9UJU6) GST-HIP-55 S269A/T291A (HIP-55AA)
14-3-3τ
  binding against the reference: lost

## HIP-55 (from UniProt Q9UJU6) HIP-55 S269A/T291A (HIP-55AA)
MAP4K1
  binding against the reference: weaker
